Changes are numbered by the printed parent chain. Names and notes keep the numbering of the source.

T1: R56K-PaHisGS (Psychrobacter arcticus, UniProt Q4FQF7 1-231, R56K)
T1 sequence: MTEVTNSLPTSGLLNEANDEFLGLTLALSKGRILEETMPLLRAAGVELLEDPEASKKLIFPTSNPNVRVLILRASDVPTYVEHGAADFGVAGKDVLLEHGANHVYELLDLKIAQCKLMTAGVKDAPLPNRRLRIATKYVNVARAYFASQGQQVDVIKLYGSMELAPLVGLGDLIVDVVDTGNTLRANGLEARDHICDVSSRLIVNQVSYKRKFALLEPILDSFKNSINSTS

T2: R56A-PaHisGS (Psychrobacter arcticus, UniProt Q4FQF7 1-231, R56A)
T2 sequence: T1 sequence with K56A

T3: WT-PaHisGS (Psychrobacter arcticus ATP phosphoribosyltransferase catalytic subunit HisGS) (Psychrobacter arcticus, UniProt Q4FQF7 1-231)
T3 chain: T1 sequence with K56R

T4: R32A-PaHisGS (Psychrobacter arcticus, UniProt Q4FQF7 1-231, R32A)
T4 sequence: T1 sequence with R32A, K56R

B1: PaHisZ (Psychrobacter arcticus ATP phosphoribosyltransferase regulatory protein HisZ) (natural protein)
chain: MLPDGVADVLFEDAHKQEVLRHQLTQQLITHGYQLVSPPMIEFTESLLSGASEDLKRQTFKIIDQLTGRLMGIRADITPQILRIDAHHGGDGIARYCYAGDVIHTLPSGLFGSRTPLQLGAEIFGCESIAADIELIDVLFSMINSLDMSAVLHVDLGHVTIFKRLAELAALSASDTEQLMQLYANKNLPELKQVCQVLPMGSDFYTLARFGHDIANLLGRLSENAQQDTKIVTAIDELQRLKAHLQVQWQCAVSIDVTELSGYHYHTGIVFNGYINSETQPLVRGGRFDGMKSNQLATNQPRQATGFSMDVSRLLAHTQLDAPFIVLIDYDAFNNLDSAQRQLLLQQVASLRQQGYRVTMPLTAEDMPVGLTHRLSLADNQWRLHAV
notes: HisZ, regulatory subunit of short-form ATP phosphoribosyltransferase, Psychrobacter arcticus; also called WT-PaHisZ
B2: R56A-PaHisGS (enzyme, Psychrobacter arcticus)
chain: T1 sequence with K56A
notes: HisGS, Psychrobacter arcticus, with R56A; made from the WT-PaHisGS expression vector
B3: WT-PaHisGS (Psychrobacter arcticus ATP phosphoribosyltransferase catalytic subunit HisGS) (enzyme)
chain: T1 sequence with K56R
notes: HisGS, catalytic subunit of short-form ATP phosphoribosyltransferase, Psychrobacter arcticus
B4: R32A-PaHisGS (enzyme, Psychrobacter arcticus)
chain: T1 sequence with R32A, K56R
notes: HisGS, Psychrobacter arcticus, with R32A; made from the WT-PaHisGS expression vector
B5: C115S-PaHisGS (enzyme, Psychrobacter arcticus)
chain: T1 sequence with K56R, C115S
notes: HisGS, Psychrobacter arcticus, with C115S; made from the WT-PaHisGS expression vector
B6: R56A/K57A-PaHisGS (enzyme, Psychrobacter arcticus)
chain: T1 sequence with K56A, K57A
notes: HisGS, Psychrobacter arcticus, with R56A and K57A; made from the WT-PaHisGS expression vector

Data set [1] deals with R56A-PaHisGS (Psychrobacter arcticus) (UniProt Q4FQF7).
Data set [2] has as its target WT-PaHisGS (Psychrobacter arcticus ATP phosphoribosyltransferase catalytic subunit HisGS) (Psychrobacter arcticus) (UniProt Q4FQF7).
Data set [3] has the same target. As to the kind of experiment: enzyme activity titration (initial rate against HisZ concentration); apparent KD; fixed PaHisGS variant, HisZ (PaHisZ, His-tagged PaHisZ or AbHisZ) varied; initial velocities at 20 °C in 100 mM tricine, 100 mM KCl, 15 mM MgCl2, 4 mM DTT, pH 8.5, 5.6 mM ATP, 2 mM PRPP; fit to Eq. (3), or to Eq. (5) for R56A-PaHisGS with AbHisZ.
The target in data set [4] is T1, R56K-PaHisGS. The data set can be described thus: cell-based or functional assay.
The target of data set [5] is B3. As to the kind of experiment: cell-based or functional assay.
Data set [6] deals with B5. As to the kind of experiment: cell-based or functional assay.
The target of data set [7] is B4. As to the kind of experiment: cell-based or functional assay.
Data set [8] deals with B2. The data set can be described thus: cell-based or functional assay.
Data set [9] concerns the target B6. The data set can be described thus: cell-based or functional assay.
Data set [10] has as its target T2, R56A-PaHisGS.
Data set [11] addresses T3, WT-PaHisGS (Psychrobacter arcticus ATP …).
The target in data set [12] is T4, R32A-PaHisGS.
Data set [13] concerns the molecule itself. The data set can be described thus: crystal structure; R56A-PaATPPRT (R56A-PaHisGS with PaHisZ) crystals soaked in PRPP and ATP; molecular replacement with PDB 6FU2.
Data set [14] deals with the molecule itself. The data set can be described thus: SEC; Superdex 200 10/300 GL, 4 °C, 20 mM HEPES pH 8.0; 1 mg/mL protein pre-incubated with 2 mM DTT.
Data set [15] deals with AbHisZ (Acinetobacter baumannii HisZ). The data set can be described thus: enzyme activity titration (initial rate against HisZ concentration); apparent KD; fixed PaHisGS variant, HisZ (PaHisZ, His-tagged PaHisZ or AbHisZ) varied; initial velocities at 20 °C in 100 mM tricine, 100 mM KCl, 15 mM MgCl2, 4 mM DTT, pH 8.5, 5.6 mM ATP, 2 mM PRPP; fit to Eq. (3), or to …. Conditions: other: enzyme activity titration (initial rate against HisZ concentration).

Data set [16] concerns the target B1. As to the kind of experiment: enzyme activity titration (initial rate against HisZ concentration); apparent KD; fixed PaHisGS variant, HisZ (PaHisZ, His-tagged PaHisZ or AbHisZ) varied; initial velocities at 20 °C in 100 mM tricine, 100 mM KCl, 15 mM MgCl2, 4 mM DTT, pH 8.5, 5.6 mM ATP, 2 mM PRPP; fit to Eq. (3), or to Eq. (5) for R56A-PaHisGS with AbHisZ. Conditions: both partners purified.

As to “AbHisZ (Acinetobacter baumannii HisZ) (natural protein)”, the apparent kcat of the R56A-PaHisGS/AbHisZ hybrid complex in [1] came out at 0.22 s⁻¹. Also, the apparent kcat of the WT-PaHisGS/AbHisZ hybrid complex in [2] is 1.49 s⁻¹. In addition, the Kd in data set [3] came to 9000 nM.

As for B1, the “activation of the R56K-PaHisGS (6 µM) reaction rate by PaHisZ (20 µM)” value in data set [4] was about 11 fold. Also, in data set [5], the “Activation by PaHisZ: ratio of kcat of PaATPPRT to v/ET of PaHisGS alone” value stood at 29 fold. The “Activation by PaHisZ: ratio of kcat of PaATPPRT variant to v/ET of the PaHisGS mutant alone” value in [6] amounted to 1860 fold; in data set [7], 208 fold; in data set [8], 250 fold; in data set [9] it was 521 fold. Besides, the Kd in [10] was 200 nM; in data set [11] it was 60 nM; in data set [12] it was 30 nM. Besides, the binding result in data set [13] is given as “binds”.

By stoichiometry N is commonly meant the number of molecules, sites or subunits per partner or assembly. B2: the “stoichiometry N” value in data set [14] came to 2. For the same molecule, the “K0.5 (concentration of AbHisZ at the inflection point, Eq. 5)” value in data set [15] came to 8.1 ± 0.4 µM. The Kd in data set [16] was 4000 nM.

Consider B3, for which, in data set [14], the “stoichiometry N” value came out at 2. Also, the Kd in [16] came to 440 nM.

On to B4, for which the “stoichiometry N” value in [14] was determined as 2. In data set [16], the Kd is 490 nM.

Consider B5, for which, in data set [14], the “stoichiometry N” value is 2. Further, the Kd in [16] was determined as 1700 nM.

In the case of B6, the “stoichiometry N” value in data set [14] stood at 2. The Kd in [16] came out at 5000 nM.

Source of the values: publication PMC9734150, “Allosteric rescue of catalytically impaired ATP phosphoribosyltransferase variants links protein dynamics to active-site electrostatic preorganisation” (Nature Communications, 2022).
